According to US20070072210:

Test system: T1, His-tagged full length BAAT1 (baculovirus, produced in Sf9 cells)
T1 sequence: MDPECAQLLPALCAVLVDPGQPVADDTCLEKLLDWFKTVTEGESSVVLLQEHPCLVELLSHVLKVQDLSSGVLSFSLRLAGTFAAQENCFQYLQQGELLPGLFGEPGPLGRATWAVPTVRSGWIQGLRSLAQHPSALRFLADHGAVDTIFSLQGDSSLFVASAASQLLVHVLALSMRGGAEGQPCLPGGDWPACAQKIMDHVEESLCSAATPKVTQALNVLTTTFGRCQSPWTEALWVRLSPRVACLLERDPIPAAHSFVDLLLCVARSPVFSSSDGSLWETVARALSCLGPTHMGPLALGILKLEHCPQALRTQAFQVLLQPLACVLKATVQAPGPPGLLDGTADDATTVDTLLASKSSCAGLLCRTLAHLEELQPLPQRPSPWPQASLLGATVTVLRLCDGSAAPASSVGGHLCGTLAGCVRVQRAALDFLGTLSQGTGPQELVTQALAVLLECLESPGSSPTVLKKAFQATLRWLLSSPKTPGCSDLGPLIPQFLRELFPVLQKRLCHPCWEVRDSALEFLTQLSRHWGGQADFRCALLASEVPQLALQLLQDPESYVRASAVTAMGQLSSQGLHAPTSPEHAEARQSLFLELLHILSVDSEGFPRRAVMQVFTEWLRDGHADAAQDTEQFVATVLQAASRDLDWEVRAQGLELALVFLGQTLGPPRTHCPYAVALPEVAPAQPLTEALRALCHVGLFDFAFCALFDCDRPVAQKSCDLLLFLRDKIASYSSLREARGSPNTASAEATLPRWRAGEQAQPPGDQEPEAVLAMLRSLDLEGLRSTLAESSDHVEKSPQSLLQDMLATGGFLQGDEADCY

## ataxia telangiectasia mutated (endogenous, from human cell lysates)
  in vitro PP2A phosphatase assay on immunoprecipitated ATM, Ser1981 phosphorylation by immunoblot: dephosphorylation of ATM Ser1981 was partially blocked in the presence of full length, baculovirus produced BAAT1
